For assay [1], the target named is T1, human FcγRIIa R extracellular domain (human, UniProt P12318 34-217).
T1 construct: extracellular domain; also called hFcγR IIa R; FcγRIIa allotype R131
T1 sequence (looked up): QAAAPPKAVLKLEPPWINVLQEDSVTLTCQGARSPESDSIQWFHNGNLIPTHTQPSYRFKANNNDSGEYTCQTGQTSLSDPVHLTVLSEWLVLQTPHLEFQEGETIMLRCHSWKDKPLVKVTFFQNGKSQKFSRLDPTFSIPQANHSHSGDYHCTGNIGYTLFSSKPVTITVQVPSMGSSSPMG
In words: SPR; KD for hFcγRIIb divided by KD for this FcγR.

For assay [2], the target named is T2, human FcγRIIIa F extracellular domain (human, UniProt P08637 17-208).
T2 construct: extracellular domain; also called hFcγR IIIa F; FcγRIIIa allotype F158
In words: SPR; KD for hFcγRIIb divided by KD for this FcγR.

For assay [3], the target named is T3, human FcγRIIIa V extracellular domain (human, UniProt P08637 17-208).
T3 construct: extracellular domain; also called hFcγR IIIa V; FcγRIIIa allotype V158
In words: SPR; KD for hFcγRIIb divided by KD for this FcγR. A general note: In SPR one partner is held on a chip, and binding of the other changes the refractive index at the surface.

For assay [4], the target named is T4, human FcγRIIa H extracellular domain (human, UniProt P12318 34-217).
T4 construct: extracellular domain; also called hFcγR IIa H; FcγRIIa allotype H131
T4 sequence (looked up): T1 sequence (looked up) with R134H
In words: SPR; KD for hFcγRIIb divided by KD for this FcγR.

In assay [5] the target is T5, human FcγRIa extracellular domain (human, UniProt P12314 16-292).
T5 construct: extracellular domain; also called hFcγR Ia
In words: SPR; KD of G1d divided by KD of this antibody.

Assay [6] addresses T1, human FcγRIIa R extracellular domain. In words: SPR; KD of G1d divided by KD of this antibody.
Assay [7] has as its target T2, human FcγRIIIa F extracellular domain. In words: SPR; KD of G1d divided by KD of this antibody.
In assay [8] the target is T3, human FcγRIIIa V extracellular domain. In words: SPR; KD of G1d divided by KD of this antibody.
For assay [9], the target named is T4, human FcγRIIa H extracellular domain. In words: SPR; KD of G1d divided by KD of this antibody.
Assay [10] has as its target T6, human FcγRIIb extracellular domain (human, UniProt P31994 43-217).
T6 construct: extracellular domain; also called hFcγR IIb
T6 sequence (looked up): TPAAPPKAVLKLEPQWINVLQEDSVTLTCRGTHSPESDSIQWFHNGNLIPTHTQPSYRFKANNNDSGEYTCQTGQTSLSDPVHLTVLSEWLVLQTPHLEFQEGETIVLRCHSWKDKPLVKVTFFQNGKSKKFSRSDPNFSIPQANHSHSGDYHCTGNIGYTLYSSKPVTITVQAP
In words: SPR; KD of G1d divided by KD of this antibody.

Assay [11] addresses T3, human FcγRIIIa V extracellular domain. In words: SPR (Biacore 8K+), antibody captured, FcγR as analyte, 25 C, 1:1 Langmuir model. The procedure:
(§1) The extracellular domains of FcγRs were produced by the method described in WO2014104165. The interaction between the produced antibodies and human FcγRs was analyzed using Biacore 8K+ by the method below. For the running buffer, 50 mM Na-Phosphate, 150 mM NaCl, and 0.05% Tween20 (pH 7.4) was used, and measurement was performed at 25° C. The sensor chip used was a Series S SA chip (GE Healthcare) onto which CaptureSelect Human Fab-kappa Kinetics Biotin Conjugate (Thermo Fisher Scientific) was immobilized. An antibody of interest was captured onto this chip, and each FcγR diluted with the running buffer was allowed to interact with it. The chip was regenerated using 10 mM Glycine-HCl (pH 1.5), and repeatedly used to capture antibodies and perform measurement. The dissociation constants KD (mol/L) of each antibody for FcγRs were calculated using Biacore Insight Evaluation Software, with a steady state affinity model for the dissociation constant for FcγRIIb and a 1:1 Langmuir binding model for the dissociation constants for the other FcγRs (Table 2).

Assay [12] has as its target T7, hFcγRIIaH on Jurkat effector cells (human, UniProt P12318 34-317).
T7 sequence (looked up): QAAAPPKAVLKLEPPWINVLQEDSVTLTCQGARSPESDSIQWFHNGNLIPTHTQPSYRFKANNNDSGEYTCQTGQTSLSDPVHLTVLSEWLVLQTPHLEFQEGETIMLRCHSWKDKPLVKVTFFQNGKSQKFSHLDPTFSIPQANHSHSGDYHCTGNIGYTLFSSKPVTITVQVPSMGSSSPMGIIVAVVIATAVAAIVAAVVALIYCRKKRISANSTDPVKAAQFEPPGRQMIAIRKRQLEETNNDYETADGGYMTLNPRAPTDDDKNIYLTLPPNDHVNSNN
In words: cell-based or functional assay.

In assay [13] the target is hFcγRIIIaV on Jurkat effector cells (human, UniProt P08637 17-254). In words: cell-based or functional assay.
Assay [14] deals with T6, human FcγRIIb extracellular domain. In words: SPR (Biacore 8K+), antibody captured, FcγR as analyte, 25 C, steady state affinity model. The protocol:
as §1

Substitutions are numbered along the chain they refer to. Names and notes keep the numbering of the source.

T3 sequence (P08637 17-208 F176V): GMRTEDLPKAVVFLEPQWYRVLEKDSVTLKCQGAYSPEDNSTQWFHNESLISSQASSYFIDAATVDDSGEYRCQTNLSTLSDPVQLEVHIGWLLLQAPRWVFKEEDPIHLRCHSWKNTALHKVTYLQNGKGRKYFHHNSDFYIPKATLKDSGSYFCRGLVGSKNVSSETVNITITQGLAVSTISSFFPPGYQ
T2 sequence (P08637 17-208): as the sequence (P08637 17-208 F176V) above, with V160F counted along it
Chain of hFcγRIIIaV on Jurkat effector cells (P08637 17-254, form in doubt): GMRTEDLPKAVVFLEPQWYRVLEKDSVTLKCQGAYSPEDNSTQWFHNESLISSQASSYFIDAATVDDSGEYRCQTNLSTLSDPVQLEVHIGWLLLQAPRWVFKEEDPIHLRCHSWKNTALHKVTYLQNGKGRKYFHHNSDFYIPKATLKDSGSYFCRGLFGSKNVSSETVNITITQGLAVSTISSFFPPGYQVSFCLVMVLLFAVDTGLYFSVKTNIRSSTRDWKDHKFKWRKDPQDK
T5 sequence (P12314 16-292): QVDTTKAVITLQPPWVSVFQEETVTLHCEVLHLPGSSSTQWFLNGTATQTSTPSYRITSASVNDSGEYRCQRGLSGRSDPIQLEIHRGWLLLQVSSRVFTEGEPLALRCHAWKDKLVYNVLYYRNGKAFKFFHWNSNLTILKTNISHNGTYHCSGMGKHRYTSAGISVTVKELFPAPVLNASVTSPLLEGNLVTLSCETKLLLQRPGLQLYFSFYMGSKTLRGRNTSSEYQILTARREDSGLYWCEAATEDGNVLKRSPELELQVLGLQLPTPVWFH

B1: EGL-ART8 (H240-Kn461/L73-k0//H240-H1443/L73-k0) (antibody, human IgG1, kappa)
heavy 1: QDQLVQSGAEVKKPGASVKVSCKASGFNIKDTYIQWVRQAPGQGLEWMGRIDPLRKQTKYREKFEGRVTITADTSTNTAYMELSSLRSEDTAVYYCVRSGREFDYWGQGTLVTVSSASTKGPSVFPLAPSSKSTSGGTAALGCLVKDYFPEPVTVSWNSGALTSGVHTFPAVLQSSGLYSLSSVVTVPSSSLGTQTYICNVNHKPSNTKVDKKVEPKSCDKTHTCPPCPAPEFQWGPMVFLFPPKPKDVLMISRTPEVTCVVVDVSDEEPEVKFNWYVDGVEVHNAKTKPREEQYNATYRVVSVLPVLHQDWLNGKEYKCKVSNDALPAPEEKTISKAKGQPREPQVCTLPPSRDELTKNQVSLWCLVKGFYPSDIAVEWESNGQPENNYKTTPPVLDSDGSFFLYSKLTVDKSRWQQGNVFSCSVMHEALHNHYTQKSLSLSP
heavy 2: QDQLVQSGAEVKKPGASVKVSCKASGFNIKDTYIQWVRQAPGQGLEWMGRIDPLRKQTKYREKFEGRVTITADTSTNTAYMELSSLRSEDTAVYYCVRSGREFDYWGQGTLVTVSSASTKGPSVFPLAPSSKSTSGGTAALGCLVKDYFPEPVTVSWNSGALTSGVHTFPAVLQSSGLYSLSSVVTVPSSSLGTQTYICNVNHKPSNTKVDKKVEPKSCDKTHTCPPCPAPELLAGPSVFLFPPKPKDVLMISRTPEVTCVVVDVSHEEPEVKFNWYVDGVEVHNAKTKPREEQYNATYRVVSVLPVLHQDWLNGKEYKCKVSNDALPAPEEETISKAKGQPREPQVYTLPPSRCELTKNQVSLSCAVKGFYPSDIAVEWESNGQPENNYKTTPPVLDSDGSFFLVSKLTVDKSRWQQGNVFSCSVMHEALHNHYTQKSLSLSP
light: DIQMTQSPSSLSASVGDRVTITCRASQDIHKYIAWYQQKPGQAPRLLIQYTSTLQPGVPSRFSGSGSGTDYTFTISSLQPEDIATYYCLQYEQLRTFGGGTKVEIKRTVAAPSVFIFPPSDEQLKSGTASVVCLLNNFYPREAKVQWKVDNALQSGNSQESVTEQDSKDSTYSLSSTLTLSKADYEKHKVYACEVTHQGLSSPVTKSFNRGEC
notes: Kn461: L234F/L235Q/G236W/S239M/T250V/H268D/D270E/S298A/T307P/K326D/I332E + Y349C/T366W; H1443: G236A/T250V/D270E/S298A/T307P/K326D/I332E/K334E + D356C/T366S/L368A/Y407V
A word on the Kd: it is the concentration at which binding is half-saturated. Higher therefore signals lower affinity. Consider B1, for which the “A/I ratio (KD for FcγRIIb divided by KD for each FcγR)” value in assay [1] amounted to 28.1 ratio; in assay [2] it was 2350 ratio; in assay [3], 6850 ratio; in assay [4] it was 47.2 ratio. The “Relative value to KD between G1d and hFcgRs” value (from here on “Relative value”) was 3.2 times in assay [5]; 13.2 times in assay [6]; 1970 times in assay [7]; 695 times in assay [8]; 15 times in assay [9]; 2.8 times in [10]. Binding in [11] was characterised by a dissociation constant (Kd) of 0.516 nM. Besides, the “EC50 of reporter gene induction (ADCP Reporter Bioassay, Hepa1-6/hEREG target cells)” value in [12] was 17.1 ng/mL. The “EC50 of reporter gene induction (ADCC Reporter Bioassay, Hepa1-6/hEREG target cells)” value in assay [13] was 1.07 ng/mL.

B2: EGL-afucosyl (H240-G1d/L73-k_glycomab) (antibody)
heavy: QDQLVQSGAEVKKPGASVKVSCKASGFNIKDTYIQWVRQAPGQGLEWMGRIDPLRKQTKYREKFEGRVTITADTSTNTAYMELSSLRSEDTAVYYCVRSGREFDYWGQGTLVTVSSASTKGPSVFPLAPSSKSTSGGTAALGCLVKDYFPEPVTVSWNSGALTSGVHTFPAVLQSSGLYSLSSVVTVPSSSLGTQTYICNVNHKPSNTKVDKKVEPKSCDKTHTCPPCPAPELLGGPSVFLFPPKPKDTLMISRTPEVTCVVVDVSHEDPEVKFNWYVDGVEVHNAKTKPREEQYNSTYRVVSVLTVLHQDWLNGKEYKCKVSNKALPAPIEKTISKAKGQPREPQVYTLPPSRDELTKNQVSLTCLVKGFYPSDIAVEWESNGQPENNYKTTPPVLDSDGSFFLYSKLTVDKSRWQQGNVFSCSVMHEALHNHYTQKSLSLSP
light: B1 light
modifications: afucosylated (fucose-deficient sugar chain) ; Afucosylated (fucose-deficient) N-glycan at Asn297 (EU) of each heavy chain; the letters cannot carry this.
notes: Same heavy chain as EGL-G1d, produced as a fucose-deficient antibody; also called afucosylated antibody
On to B2, for which the results for the “Relative value” value in assay [9] and in assay [10] were 1.1 times and 1.8 times, respectively. Moreover, the Kd in [11] is 19 nM; in assay [14], 5650 nM.

B3: EGL-GASDIE (H240-Kn037/L73-k0//H240-H1036/L73-k0) (antibody, human IgG1, kappa)
heavy 1: B1 heavy 1 with F233L, Q234L, W235A, M238D, V249T, D267H, E269D, A297S, P306T, D325K
heavy 2: B1 heavy 2 with S238D, V249T, E269D, A297S, P306T, D325K, E333K
light: B1 light
notes: G236A/S239D/I332E in both heavy chains; Kn037 with Y349C/T366W, H1036 with D356C/T366S/L368A/Y407V
Consider B3, for which the “A/I ratio (KD for FcγRIIb divided by KD for each FcγR)” value amounted to 18.6 ratio in assay [1], 18.9 ratio in assay [2], 52.6 ratio in assay [3] and 18.2 ratio in assay [4]. Moreover, the “Relative value” value in assay [5] was found to be 6.2 times; in [6], 24.7 times; in [7], 44.7 times; in [8], 15.1 times; in assay [9], 16.4 times; in assay [10], 8 times. The “EC50 of reporter gene induction (ADCP Reporter Bioassay, Hepa1-6/hEREG target cells)” value in [12] amounted to 14.9 ng/mL. Besides, the “EC50 of reporter gene induction (ADCC Reporter Bioassay, Hepa1-6/hEREG target cells)” value in assay [13] came out at 3.7 ng/mL.

These data come from patent US20240043515A1 (Chugai, published 2024).
